In patent publication US20180215801A1 (BOARD OF TRUSTEES OF MICHIGAN STATE UNIVERSITY, published 2018):

Key:
[1] = target: T1, ALK4-Fc (human ALK4 extracellular domain fused to human IgG1 Fc) (human, UniProt P36896 24-110); test: SPR (Biacore 2000), Fc fusion captured on anti-human Fc chip, ligand injected, 1:1 Langmuir fit
T1 construct: range 1-110; Captured on an anti-human Fc chip in SPR; also called ALK4-hIgg-Fc; human ALK4-Fc
Description: (§1) Receptor-ligand binding affinities were determined by SPR using the Biacore 2000. Anti-human IgG (Fc) antibody was immobilized onto four channels of a CM5 chip using amine coupling chemistry. […] A reference channel was monitored to account for nonspecific binding, drift, and bulk shifts. […] After each binding cycle, the antibody surface was regenerated to base line. All experiments were carried out at 25° C. HBS-EPS buffer (0.01 M HEPES, […], 3 mM EDTA, 0.005% (v/v) Tween 20, pH 7.4) containing 0.1% BSA was used as running buffer. […] Sensograms were analyzed by double referencing. To obtain kinetic rate constants, the processed data was fitted to 1:1 Langmuir interaction model with mass transport limitation using Scrubber, Clamp or BiaEvaluation software. The equilibrium binding constant Kd was determined by calculating the ratio of binding rate constants kd/kₐ.

[2] = target: T2, Fc-free Cryptic (human Cryptic extracellular domain after removal of the Fc with TEV protease) (human, UniProt P0CG37 26-155); test: SPR competition: 1 nM Activin A preincubated with Fc-free Cryptic, binding to captured ACTRIIA-Fc is blocked
T2 construct: Same conflict about the C-terminal limit as for Cryptic-Fc (155 vs 167)
Description: (§2) Receptor-ligand binding affinities were determined by SPR using the Biacore 2000. Anti-human IgG (Fc) antibody was immobilized onto four channels of a CM5 chip using amine coupling chemistry. […] A reference channel was monitored to account for nonspecific binding, drift, and bulk shifts.

[3] = target: T1, ALK4-Fc (human ALK4 extracellular …); test: SPR, ALK4-Fc captured, Activin A series preincubated with excess Fc-free Cryptic injected
Description: as §1

[4] = target: T2, Fc-free Cryptic (human Cryptic …); test: SPR competition: 10 nM Activin B preincubated with Fc-free Cryptic, binding to captured ACTRIIA-Fc is blocked
Description: as §2

T1 sequence (P36896 other isoform, or with tags, fused parts or gaps limits assumed, form in doubt): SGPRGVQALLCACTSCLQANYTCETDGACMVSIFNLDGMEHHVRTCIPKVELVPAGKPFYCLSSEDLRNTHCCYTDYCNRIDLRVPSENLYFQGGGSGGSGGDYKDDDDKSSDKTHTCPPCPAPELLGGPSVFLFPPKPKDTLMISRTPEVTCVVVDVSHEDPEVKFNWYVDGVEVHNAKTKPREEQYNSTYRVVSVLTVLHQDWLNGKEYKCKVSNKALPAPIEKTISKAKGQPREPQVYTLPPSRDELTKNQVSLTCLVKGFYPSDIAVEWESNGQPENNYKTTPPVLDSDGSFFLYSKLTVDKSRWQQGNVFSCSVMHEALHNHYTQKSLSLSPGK

B1: Activin A (ligand)
chain: GLECDGKVNICCKKQFFVSFKDIGWNDWIIAPSGYHANYCEGECPSHIAGTSGSSLSFHSTVINHYRMRGHSPFANLKSCCVPTKLRPMSMLYYDDGQNIIKKDIQNMIVEECGCS
notes: also called homodimer of inhibin beta A subunits
- Kd [1]: 4 nM
- koff [1]: 0.0018 s⁻¹
- kon [1]: 450000 M⁻¹ s⁻¹
- binding result [2]: binds

B2: Activin A/Cryptic complex (Activin A preincubated with excess Fc-free Cryptic) (other)
chain 1: GLECDGKVNICCKKQFFVSFKDIGWNDWIIAPSGYHANYCEGECPSHIAGTSGSSLSFHSTVINHYRMRGHSPFANLKSCCVPTKLRPMSMLYYDDGQNIIKKDIQNMIVEECGCS
chain 2: not shown
- Kd [3]: 2.6 nM
- koff [3]: 0.0016 s⁻¹
- kon [3]: 620000 M⁻¹ s⁻¹

B3: Activin B (ligand, UniProt P09529 293-407, looked up)
chain: GLECDGRTNLCCRQQFFIDFRLIGWNDWIIAPTGYYGNYCEGSCPAYLAGVPGSASSFHTAVVNQYRMRGLNPGTVNSCCIPTKLSTMSMLYFDDEYNIVKRDVPNMIVEECGCA
notes: also called recombinant Activin B
- binding result [4]: binds
